{"source": "patent US20180362585A1", "about": "(Bicycle, published 2018)", "binders": {"B1": {"name": "Ac-(06-34-18) A2A3 (peptide)", "peptide": "Ac-CSAAARCLHQDLC-NH2", "modifications": "linker 1-7-13 via TBMB", "SMILES": "CC(=O)N[C@H]1CSCc2cc3cc(c2)CSC[C@H](NC(=O)[C@H](CCCNC(=N)N)NC(=O)[C@H](C)NC(=O)[C@H](C)NC(=O)[C@H](C)NC(=O)[C@H](CO)NC1=O)C(=O)N[C@@H](CC(C)C)C(=O)N[C@@H](Cc1c[nH]cn1)C(=O)N[C@@H](CCC(N)=O)C(=O)N[C@@H](CC(=O)O)C(=O)N[C@@H](CC(C)C)C(=O)N[C@H](C(N)=O)CSC3"}, "B2": {"name": "Ac-(06-34-18) A2Q3 (peptide)", "peptide": "Ac-CSAQARCLHQDLC-NH2", "modifications": "linker 1-7-13 via TBMB", "SMILES": "CC(=O)N[C@H]1CSCc2cc3cc(c2)CSC[C@H](NC(=O)[C@H](CCCNC(=N)N)NC(=O)[C@H](C)NC(=O)[C@H](CCC(N)=O)NC(=O)[C@H](C)NC(=O)[C@H](CO)NC1=O)C(=O)N[C@@H](CC(C)C)C(=O)N[C@@H](Cc1c[nH]cn1)C(=O)N[C@@H](CCC(N)=O)C(=O)N[C@@H](CC(=O)O)C(=O)N[C@@H](CC(C)C)C(=O)N[C@H](C(N)=O)CSC3"}, "B3": {"name": "Ac-(06-34-18) Scram1 (peptide)", "peptide": "Ac-CPSAWRCLHQDLC-NH2", "modifications": "linker 1-7-13 via TBMB", "SMILES": "CC(=O)N[C@H]1CSCc2cc3cc(c2)CSC[C@H](NC(=O)[C@H](CCCNC(=N)N)NC(=O)[C@H](Cc2c[nH]c4ccccc24)NC(=O)[C@H](C)NC(=O)[C@H](CO)NC(=O)[C@@H]2CCCN2C1=O)C(=O)N[C@@H](CC(C)C)C(=O)N[C@@H](Cc1c[nH]cn1)C(=O)N[C@@H](CCC(N)=O)C(=O)N[C@@H](CC(=O)O)C(=O)N[C@@H](CC(C)C)C(=O)N[C@H](C(N)=O)CSC3"}, "B4": {"name": "Ac-(06-34-18) Scram2 (peptide)", "peptide": "Ac-CWASPRCLHQDLC-NH2", "modifications": "linker 1-7-13 via TBMB", "SMILES": "CC(=O)N[C@H]1CSCc2cc3cc(c2)CSC[C@H](NC(=O)[C@H](CCCNC(=N)N)NC(=O)[C@@H]2CCCN2C(=O)[C@H](CO)NC(=O)[C@H](C)NC(=O)[C@H](Cc2c[nH]c4ccccc24)NC1=O)C(=O)N[C@@H](CC(C)C)C(=O)N[C@@H](Cc1c[nH]cn1)C(=O)N[C@@H](CCC(N)=O)C(=O)N[C@@H](CC(=O)O)C(=O)N[C@@H](CC(C)C)C(=O)N[C@H](C(N)=O)CSC3"}, "B5": {"name": "Ac-(06-34-18) Scram3 (peptide)", "peptide": "Ac-CAPWSRCLHQDLC-NH2", "modifications": "linker 1-7-13 via TBMB", "SMILES": "CC(=O)N[C@H]1CSCc2cc3cc(c2)CSC[C@H](NC(=O)[C@H](CCCNC(=N)N)NC(=O)[C@H](CO)NC(=O)[C@H](Cc2c[nH]c4ccccc24)NC(=O)[C@@H]2CCCN2C(=O)[C@H](C)NC1=O)C(=O)N[C@@H](CC(C)C)C(=O)N[C@@H](Cc1c[nH]cn1)C(=O)N[C@@H](CCC(N)=O)C(=O)N[C@@H](CC(=O)O)C(=O)N[C@@H](CC(C)C)C(=O)N[C@H](C(N)=O)CSC3"}, "B6": {"name": "Ac-(06-34-18) Scram4 (peptide)", "peptide": "Ac-CWARSPCLHQDLC-NH2", "modifications": "linker 1-7-13 via TBMB", "SMILES": "CC(=O)N[C@H]1CSCc2cc3cc(c2)CSC[C@H](NC(=O)[C@@H]2CCCN2C(=O)[C@H](CO)NC(=O)[C@H](CCCNC(=N)N)NC(=O)[C@H](C)NC(=O)[C@H](Cc2c[nH]c4ccccc24)NC1=O)C(=O)N[C@@H](CC(C)C)C(=O)N[C@@H](Cc1c[nH]cn1)C(=O)N[C@@H](CCC(N)=O)C(=O)N[C@@H](CC(=O)O)C(=O)N[C@@H](CC(C)C)C(=O)N[C@H](C(N)=O)CSC3"}, "B7": {"name": "Ac-(06-34-18) Phe2 Tyr4 Thr7 Thr8 Glu9 (peptide)", "peptide": "Ac-CSFPYRCLTTELC-NH2", "modifications": "linker 1-7-13 via TBMB", "SMILES": "CC(=O)N[C@H]1CSCc2cc3cc(c2)CSC[C@H](NC(=O)[C@H](CCCNC(=N)N)NC(=O)[C@H](Cc2ccc(O)cc2)NC(=O)[C@@H]2CCCN2C(=O)[C@H](Cc2ccccc2)NC(=O)[C@H](CO)NC1=O)C(=O)N[C@@H](CC(C)C)C(=O)N[C@@H]([C@@H](C)O)C(=O)N[C@@H]([C@@H](C)O)C(=O)N[C@@H](CCC(=O)O)C(=O)N[C@@H](CC(C)C)C(=O)N[C@H](C(N)=O)CSC3", "notes": "also called loop 2 LTTEL"}, "B8": {"name": "06-34-04 (peptide)", "peptide": "ACRWPARCMHQDLCA", "modifications": "linker 2-8-14 via TBMB; not fully specified (N-terminus, C-terminus)"}, "B9": {"name": "06-34-05 (peptide)", "peptide": "ACRWPARCLHQDLCA", "modifications": "linker 2-8-14 via TBMB; not fully specified (N-terminus, C-terminus)"}, "B10": {"name": "06-34-17 (01 + 04) (peptide)", "peptide": "ACSWPARCMHQDLCA", "modifications": "linker 2-8-14 via TBMB; not fully specified (N-terminus, C-terminus)"}, "B11": {"name": "06-34-18 (01 + 05) (peptide)", "peptide": "ACSWPARCLHQDLCA", "modifications": "linker 2-8-14 via TBMB; not fully specified (N-terminus, C-terminus)"}}, "note": "Numbered stars: 1 amine (or outer) side, 2 acyl side, 3 side chain; on linkers, the order of the positions; unused ones are H or OH. Bridge positions count the residues as written; N and C are the ends. Ends that are not written are not given here. TBMB = c1c(C[*:1])cc(C[*:3])cc1C[*:2]", "data": [{"biological_target": "T1, human plasma Kallikrein (human, UniProt P03952 20-638)", "T1 construct": "also called hPK; human PK", "T1 sequence (P03952 20-638 limits assumed)": "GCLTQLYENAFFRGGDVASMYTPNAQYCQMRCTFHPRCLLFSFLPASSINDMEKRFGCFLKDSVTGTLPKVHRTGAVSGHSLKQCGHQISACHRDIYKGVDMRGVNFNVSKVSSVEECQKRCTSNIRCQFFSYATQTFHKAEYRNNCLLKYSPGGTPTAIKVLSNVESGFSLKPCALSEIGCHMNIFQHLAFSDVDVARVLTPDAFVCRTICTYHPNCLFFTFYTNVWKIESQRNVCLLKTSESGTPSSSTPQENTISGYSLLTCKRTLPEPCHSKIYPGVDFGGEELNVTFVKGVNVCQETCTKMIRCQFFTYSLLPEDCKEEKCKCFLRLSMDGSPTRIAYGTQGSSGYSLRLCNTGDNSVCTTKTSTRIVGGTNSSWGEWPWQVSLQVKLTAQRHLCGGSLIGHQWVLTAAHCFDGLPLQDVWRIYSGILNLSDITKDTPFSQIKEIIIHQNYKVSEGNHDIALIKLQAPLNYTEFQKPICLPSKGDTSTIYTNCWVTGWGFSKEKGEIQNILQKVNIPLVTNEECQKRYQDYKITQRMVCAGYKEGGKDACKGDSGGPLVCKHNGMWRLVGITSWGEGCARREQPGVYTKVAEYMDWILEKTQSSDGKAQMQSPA", "experiment": "enzyme inhibition", "experimental": "(§1) Functional enzyme assays were conducted in 10 mM Tris HCl, 150 mM NaCl, 10 mM MgCl2, 1 mM CaCl₂) and 1 mg/mL BSA (all Sigma UK) pH7.4 at 25° C. in solid black 96 well plates. […] Release of AMC was measured using a Pherastar FS (BMG Labtech), excitation 360 nm, emission 460 nm. The rate of the linear phase of the reaction, typically 5 to 45 minutes, was calculated in MARS data analysis software (BMG labtech). The rate was then used to calculate the IC50 and Ki in Prism (GraphPad).\nCrucially, such modifications should not affect the potency against human or rat Kallikrein. An initial exploration regarding the role of the WPAR (SEQ ID No. 19) sequence/pharmacophore (FIG. 9, 10) was performed by replacing W₂P₃ with A₂A₃ or A₂Q₃ and by scrambling parts or the entire first loop of the bicycle.", "units": {"Ki": "nM"}, "values": [{"binder": "B1", "Ki": 18500}, {"binder": "B2", "Ki": 15800}, {"binder": "B3", "Ki": 1090}, {"binder": "B4", "Ki": 11400}, {"binder": "B5", "Ki": 1890}, {"binder": "B6", "Ki": 67500}]}, {"biological_target": "T1, human plasma Kallikrein", "experiment": "enzyme inhibition; ref WT", "experimental": "as §1", "units": {"F (Kivar/KiWT)": "fold"}, "values": [{"binder": "B7", "F (Kivar/KiWT)": 193}]}, {"biological_target": "T2, rat plasma Kallikrein (rat, UniProt P14272 391-638, limits assumed)", "T2 construct": "domain: catalytic domain; also called rPK; rat PK", "T2 sequence (P14272 391-638 limits assumed)": "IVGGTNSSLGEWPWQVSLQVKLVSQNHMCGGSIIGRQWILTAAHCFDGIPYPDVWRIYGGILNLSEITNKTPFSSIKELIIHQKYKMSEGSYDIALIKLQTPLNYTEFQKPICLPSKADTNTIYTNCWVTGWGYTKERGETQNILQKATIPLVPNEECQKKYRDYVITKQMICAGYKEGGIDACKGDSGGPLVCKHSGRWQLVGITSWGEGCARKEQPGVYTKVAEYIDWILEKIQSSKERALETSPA", "experiment": "enzyme inhibition", "experimental": "as §1", "units": {"IC50": "nM"}, "values": [{"binder": "B8", "IC50": 0.56}, {"binder": "B9", "IC50": 0.62}, {"binder": "B10", "IC50": 0.44}, {"binder": "B11", "IC50": 0.56}]}, {"biological_target": "T1, human plasma Kallikrein", "experiment": "enzyme inhibition", "remark": "another data set of the same source", "experimental": "as §1", "units": {"IC50": "nM", "Ki": "nM", "fold reduction in binding vs wildtype": "fold"}, "values": [{"binder": "B8", "IC50": 0.075}, {"binder": "B9", "IC50": 0.076}, {"binder": "B10", "IC50": 0.073}, {"binder": "B11", "IC50": 0.07, "Ki": 0.04}, {"binder": "B1", "fold reduction in binding vs wildtype": "~100000"}, {"binder": "B2", "fold reduction in binding vs wildtype": "~100000"}, {"binder": "B7", "Ki": 81}]}]}
